# Test results published in publication PMC5586346.
# What was measured:
# [1] = target: α7 nicotinic acetylcholine receptor (mouse (endogenous in EOC20)) (UniProt P49582)
# [2] = target: dominant-negative α7 nAChR α7_(345-8A) (UniProt P36544)
# [3] = target: α7 nicotinic acetylcholine receptor (mouse (endogenous in EOC20)) (UniProt P49582); remark: listed apart in the source
# [4] = target: dominant-negative α7 nAChR α7_(345-8A) (UniProt P36544); remark: listed apart in the source
substance,measurement,setting,value
heterotrimeric G protein subunit Gαi (from UniProt P08752 1-355) (natural protein),"peak of the intracellular calcium transient (GCaMP5G, % of baseline) on 3 mM choline, EOC20 cells transfected with empty plasmid",[1],580%
same,"peak of the intracellular calcium transient (GCaMP5G, % of baseline) on 3 mM choline, EOC20 cells transfected with α7 (345-8A)",[2],368%
same,"TNF-α release (ELISA of the medium), % change from baseline with LPS, LPS + 1 mM choline, EOC20 cells transfected with empty vector",[3],-25.8%
same,"TNF-α release (ELISA of the medium), % change from baseline with LPS, LPS + 1 mM choline, EOC20 cells transfected with α7 (345-8A)",[4],-9.22%
